For two substances, stoichiometry N results are on record in paper doi:10.1101/712158.

For one experiment, the target named is L19-hIL2 (human). Put plainly: SEC. (In general: SEC sorts molecules by how far they enter the pores of the column.)
A further experiment concerns the target L19-mTNF (murine). The experiment can be described thus: SEC.

On to L19-hIL2, for which the stoichiometry N with L19-hIL2 (human) was determined as 2.

As to L19-mTNF, the stoichiometry N with L19-mTNF (murine) worked out at 3.

As usually defined, the stoichiometry N is a count of units in the complex or per binding partner.
